Laboratory results published in the supplement of paper PMC9170038.

Test system: MS2 coat protein
Test: apparent KD of MS2 coat protein; designed switch direction (-1 OFF switch, 1 ON switch): -1; higher = weaker reporter binding
In short: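 Designed RNA switches with common flanks were made on Illumina chips by stalled E. coli RNA polymerase. Titration with SNAP-549-labelled MS2 coat protein doubled from 0.7 or 1.5 nM up to 3 µM. Apparent KD is each design's median over clusters after curve-fitting normalised fluorescence.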

[1] = input ligand: microRNA oligo, concentration not stated
[2] = Eterna round: R95, input ligand: microRNA oligo, concentration not stated
[3] = Eterna round: R95, input ligand: FMN 200 uM
[4] = Eterna round: R95, input ligand: none

| Sequence | apparent KD of MS2 coat protein (input ligand: FMN 200 uM) | apparent KD of MS2 coat protein (input ligand: none) | apparent KD of MS2 coat protein [1] | apparent KD of MS2 coat protein [2] | apparent KD of MS2 coat protein [3] | apparent KD of MS2 coat protein [4] |
| --- | --- | --- | --- | --- | --- | --- |
| CAGUACUGAGGAUAUACAUGAGGAUCACCCAUGUGCUCCAGCUAGGAAACUAGCAAAAGUAGAAGGCAGUACUG [828 mod 2 m8] (Eterna round: R97, puzzle: Exclusion 3) | 3960 nM | 101 nM |  |  |  |  |
| ACUGUUUGAUUCCUCUUAUACAUGAGGAUCACCCAUGUUAUCGAGGAUAUGCAUUAGAGUGUUUAGCAGAAGGCGAUGUAAUUG [JR_ExcNG3_Sub033] (Eterna round: R96, puzzle: Exclusion NG 3) | 112 nM | 17.9 nM | 8.68 nM |  |  |  |
| UAUUAGCAAGCAAGAUCCUACAUGAGGAUCACCCAUGUGCUCGUCUUAAACGCAGAAUUACUGCGAGCUCGUCUUAU [Winner reversed engineered 25] (Eterna round: R97, puzzle: Sensor, turn-off variant 1) | 579 nM | 849 nM |  |  |  |  |
| AAAAGGUCAGGAUAUGCUUGGCGGAUUCUGGUAUCCAAAUGACAUGAGGAUCACCCAUGUAGAAGGGACAUCAG [Maanlesoge] (Eterna round: R97, puzzle: Exclusion 2) | 21.8 nM | 20.6 nM |  |  |  |  |
| CCAUGCAGUGUGAGGAUAUGCUGGUCCUUGGAUCAGCAGAAGGCACAUGAGGAUCACCCAUGUGAAUAGCGUGG [Mat - Exclusion 4 - JL Mod - D84] (puzzle: Brourd's mod of Exclusion 4) |  |  |  | 36.6 nM |  |  |
| AAAGAUGGAGGAUAUACAUGAGGAUCACCCAUGUAGAAAAAAAAUUGGGAAAAAGAAAGUAGAAGGCCAAAAAA [Ex 3 May 43] (Eterna round: R96, puzzle: Exclusion 3) | 67.6 nM | 36.5 nM | 25.6 nM |  |  |  |
| GCUCUCUCUCUGUCUCUCUACAUGAGGAUCACCCAUGUGUCUCGCUCGCUCUCUCUCUCUCUUUCUCUCUCUCUCUU [Default title] (Eterna round: R97, puzzle: Sensor, turn-off variant 1) | 104 nM | 135 nM |  |  |  |  |
| GUCAGCUCGUCAGGAUAUACAUGAGGAUCACCCAUGUGGUCAAUAGCAGCUUCGGCUGCAAUAAUGUAGAAGGGACGAGCUGAC [ENG2/8-E] (Eterna round: R96, puzzle: Exclusion NG 2) | 115 nM | 756 nM | 301 nM |  |  |  |
| GGUCAGAUGGUAGGAUAUUUAUAUCGAGUGACCCUUUCAUAACAUGAGGAUCACCCAUGUCGGUGGGAGAAGGGCCGUACGGCG [salish99_ExNG02_R04_013] (Eterna round: R96, puzzle: Exclusion NG 2) | 37.7 nM | 45.7 nM | 33.1 nM |  |  |  |
| ACUUAUAGAGGAUAUACAGAAUAUUACAUGAGGAUCACCCAUGUUCUUCAAUGUAUAUAAGUAGAAGGCUAAGGUU [Mat - Exclusion 5 - JL Mod - D5] (Eterna round: R97, puzzle: Exclusion 5) | 282 nM | 33.4 nM |  |  |  |  |
| CGGCAAUCCUAGGAUAUGCUAGACGAGAGUCUAGCAGAAGGAGGAACAUGAGGAUCACCCAUGUGUCCUAGCCG [Mat - Exclusion 6 - Eli Mod - D15] (Eterna round: R97, puzzle: Exclusion 6) | 22.1 nM | 15.6 nM |  |  |  |  |
| GCGGACUAGAACGUGAGUUCUGAGACAUGAGGAUCACCCAUGUAGGAUAUCGAUUCGAAACGAAUCGAGAAGGGCAUAGUCCGC [JL denovo 11] (Eterna round: R96, puzzle: Exclusion NG 3) | 15.2 nM | 17.7 nM | 14.7 nM |  |  |  |
| GCUGCGCGAGGAUAUGCGGUUCGGGCGGUGGCCGCUGGCGGACAUGAGGAUCACCCAUGUAGAAGGCGUGCGGG [Apr-15 SS2-61] (puzzle: Exclusion 2) |  |  |  | 14.9 nM |  |  |
| GCAUGUUGGUAGGAUAUGCAGCGAAAACCGCUAGUAGAAGGAUUGACAUGAGGAUCACCCAUGUGAACCGAAGG [Esesbece] (Eterna round: R97, puzzle: Exclusion 6) | 139 nM | 36.6 nM |  |  |  |  |
| AAUAGCAAGCAGAUCCUAAACAUGAGGAUCACCCAUGUGCUCGUCUUGUAAAGUACUAUCACGAAAGUGAUAGUACA [Sensor 3, v1 - 61] (puzzle: Sensor v3, turn-off variant 1) |  |  |  | 326 nM | 118 nM | 88.3 nM |
| UUUUAACAUGAGGAUCACCCAUGUGAGGAUAUCGAAAUUUAUAUUAAUAUUUUUAUAACGAGAAGGCACAUUUU [JMF 71] (puzzle: Exclusion 1) |  |  |  | 64.8 nM |  |  |
| AACUGACAUGAGGAUCACCCAUGUCAGGAUAUGCUUCAUAAAAACAAACAAAAAUGAUGCAGAAGGGACAUGGA [Design 30 :P Sub-opt 6] (Eterna round: R96, puzzle: Exclusion 1) |  |  | 14.3 nM |  |  |  |

| Sequence | apparent KD of MS2 coat protein (input ligand: FMN 200 uM) | apparent KD of MS2 coat protein (input ligand: none) | apparent KD of MS2 coat protein [1] | apparent KD of MS2 coat protein [2] | apparent KD of MS2 coat protein [3] | apparent KD of MS2 coat protein [4] |
| --- | --- | --- | --- | --- | --- | --- |
| UUAAUUCUGAUUCUUGAAAUACAUGAGGAUCACCCAUGUUCACAGGAUAUUGAUUAUGUUAGUUACAAGAAGGGUGUAUCAUAU [JR_ExcNG3_Sub038] (Eterna round: R96, puzzle: Exclusion NG 3) | 38.9 nM | 30.6 nM | 26.8 nM |  |  |  |
| AGUCCACAUGAGGAUCACCCAUGUCAGGAUAUCUGCUGGAAGAGGGCAGAAAGCCAGGAGAGAAGGGACCUGGG [Usarila] (puzzle: Exclusion 1) |  |  |  | 34 nM |  |  |
| ACAGUUCUGCAAGGAUAUCGUCCUAGUUUGUUUCGAGAAGGUGCUUUUGUUUUUUCCUUUUGUUUACAUGAGGAUCACCCAUGU [JR_ExcNG1_Sub051] (Eterna round: R96, puzzle: Exclusion NG 1) | 15.6 nM | 18.9 nM | 16.6 nM |  |  |  |
| GUAAUAGUGGUUAGGAUAUGCGAUCGAAAAUAGGUGCAGAAGGAACAUGAGGAUCACCCAUGUGCCUCCUCAAU [Eternabot (L1) Solution 6] (Eterna round: R97, puzzle: Brourd's mod of Exclusion 4) | 24.2 nM | 15.6 nM |  |  |  |  |
| AUUUAAUUUAAUAAGAUCACAUGAGGAUCACCCAUGUAUAUAUAGGAUAUCAGCUCGUGUAGAGCUGAGAAGGAUAUAUACUAU [ExNG3/7-B3] (Eterna round: R96, puzzle: Exclusion NG 3) |  |  | 266 nM |  |  |  |
| AGCGUGGAGACAGGAUAUGAGAAUAGAUAGAACUCAGAAGGGUCACAUGAGGAUCACCCAUGUAAAGUCUUGAGGAUGAGUGAU [Prohibition 4 - Jieux - Exclusion NG 1] (Eterna round: R96, puzzle: Exclusion NG 1) | 192 nM | 73.5 nM | 57.7 nM |  |  |  |
| GCGCGGACAGGAUAUACAUGAGGAUCACCCAUGUGUGAGGCUAACAGUGCCAACUCUGGUAGAAGGGUCCCGGG [EX3 B.19] (Eterna round: R97, puzzle: Exclusion 3) | 269 nM | 111 nM |  |  |  |  |
| GAAAAGGUAGGAUAUACGAAAAUAAAGGGUAGAAAAAAAACACAUGAGGAUCACCCAUGUAGAAGGACCAAAAG [salish99_ex2_r3_083] (puzzle: Exclusion 2) |  |  |  | 33.4 nM | 68.3 nM | 36.4 nM |
| UAAGAGUGAGGAUAUACGUCGCUGGUCUGGAUGGACGCAUGACAUGAGGAUCACCCAUGUAGAAGGCACAAAAC [Enxela Mod 11 - Jieux - Exclusion 2] (Eterna round: R97, puzzle: Exclusion 2) | 153 nM | 35 nM |  |  |  |  |
| ACAUGCUAGUAGGAUAUCGUACGCCGAAUAGUAUGAGAAGGAUUGACAUGAGGAUCACCCAUGUGAUGCCUGAA [Quveedes] (Eterna round: R97, puzzle: Exclusion 6) | 22 nM | 18.7 nM |  |  |  |  |
| UUAGCGUAAGUAAGGAUAUGCUGGUCUAAUGAUCAGCAGAAGGUACAUGAGGAUCACCCAUGUGGAUUCGUUAU [Mod of JL 10 - Jieux - Brourd's mod of Exclusion 4] (Eterna round: R97, puzzle: Brourd's mod of Exclusion 4) | 35.8 nM | 19.2 nM |  |  |  |  |
| GAAAAGGUAGGAUAUACGAAUAAAAAGGGUAGAAAAAAAACACAUGAGGAUCACCCAUGUAGAAGGACCAAAAG [salish99_ex2_r3_085] (puzzle: Exclusion 2) |  |  |  | 25 nM | 67.7 nM | 24.4 nM |
| AAUAAUAAGGAGGAUAUCGUAUCCGAAAGGAUACGAGAAGGCCUAACAUGAGGAUCACCCAUGUUCCUCAAUAA [Mat - Exclusion 6 - Eli Mod - D54] (puzzle: Exclusion 6) |  |  |  | 264 nM | 773 nM | 267 nM |
| AAUCCACAUGAGGAUCACCCAUGUUAGGAUAUCGCGGAGAUCGACUGCGGAAGUUCUGCGAGAAGGAGCGUGAU [Eternabot (L2) Solution 18] (Eterna round: R97, puzzle: Exclusion 1) | 51.6 nM | 44 nM |  |  |  |  |
| GGGUUACAUGAGGAUCACCCAUGUGAGGAUAUGAUACUAUGUACUUCGGUACAUAGUAUCAGAAGGCACAUAAA [Ex1-3: 19] (puzzle: Exclusion 1) |  |  |  | 121 nM |  |  |
| AAAUGUUCGGAGGAUAUAGAACGAUUGUCCGAGCUAGAAGGCCGAACAUGAGGAUCACCCAUGUGUACCUUAAA [Tibiares] (puzzle: Exclusion 6) |  |  |  | 40.1 nM | 306 nM | 53.7 nM |
| GGUCAAGAACAGAUCCGCGCUGUCAUUGACCGCUCAUUUACAUGAGGAUCACCCAUGUUUUUUGCUUGUCUUGUUAC [Edrama] (puzzle: Sensor v3, turn-off variant 2) |  |  |  | 88.3 nM | 19.6 nM | 18.2 nM |
